From the DeepSol protein solubility set come the findings set out here.

This data set is described as follows: soluble on expression in E. coli; label from the status in PepcDB or PDB records.
For the sequence “MANQKQVLDVQVSKGITTAQSNEHLRDRSEKAEKYAMSKGNYDPTRKRLNFEIAPGGKIHPIDTSRSIPKRMADILSHRGIKDPNEGLLEPKYRTVVNIIFGGSRQRMQELAFGTQQVDFEKGADNTRIERKRDIERWAKDVYSFVCGRYGEQNIAAFIVHLDELNPHIHCTLLPIKDSRFAYKEIFAGKDKFEYSARMKQLHTDFFAEVNTKWGMSRGTSISETGARHRTTEEYRRMLSEECTTIEDNIKLHQQVLGELQSDIRLAERRVKGLTTMVSNLEKQKTEKETLLSAAEYNLKENKGNAAELAIQIQMLEKELQGIIRQLADKQEKLQTADRQLIELKKDMGAIEERTEELKEEAYQYSRDVHSKVDSLFKDVLLESVISEYRNASAQMNVSERQLFDGSLVQSIAERGTEIMHCATMLFLGMVDDATTFAESHGGGGGGSDLKWGRDEDEDNRAWALRCMRMASRMMRSTIGKKSKRLEHHHHHH”, the “soluble on expression in E. coli” value is on record as “not soluble”. On to “MANRSHHNAGHRAMNALRKSGQKHSSESQLGSSEIGTTRHVYDVCDCLDTLAKLPDDSVQLIICDPPYNIMLADWDDHMDYIGWAKRWLAEAERVLSPTGSIAIFGGLQYQGEAGSGDLISIISHMRQNSKMLLANLIIWNYPNGMSAQRFFANRHEEIAWFAKTKKYFFDLDAVREPYDEETKAAYMKDKRLNPESVEKGRNPTNVWRMSRLNGNSLERVGHPTQKPAAVIERLVRALSHPGSTVLDFFAGSGVTARVAIQEGRNSICTDAAPVFKEYYQKQLTFLQDDGLIDKARSYEIVEGAANFGAALQRGDVAS”, for which the “soluble on expression in E. coli” value is “soluble”. The value for “MANSGEEKLKLYSYWRSSCAHRVRIALALKGLDYEYIPVNLLKGDQFDSDFKKINPMGTVPALVDGDVVINDSFAIIMYLDEKYPEPPLLPRDLHKRAVNYQAMSIVLSGIQPHQNLAVIRYIEEKINVEEKTAWVNNAITKGFTALEKLLVNCAGKHATGDEIYLADLFLAPQIHGAINRFQINMEPYPTLAKCYESYNELPAFQNALPEKQPDAPSSTI” was “soluble”; that for “MANSLRNVNDYDPFKYRPSYFDLEAPTESFALGKFVDAIEVKQMALDAFSESSMVSIATSQLPKTAYTATSFIESEYYSFPYLFNDQKYYWDYFDYKIPAADFAVLELELDLNNQQDQQIKDHFIDPAIKAYKQLGDSTGLFATKPLTEYQNDTHYLLGYPVVPTDHTQLWECKQGAERFSYGYFYSNMARLTKNLRQGDPNAGSKTHIEYSNELLDKDSMDQGIVRFSTFLGANINYHDYDYRQQGYGLTLTDTNLPGGSSGSLVFNQDKKISSIYSAATESDSVGYAQLLRTPRDVNGISVVSQSYDLIFGDSNTKRYYAMFAKKQQTHLYSEILKSTDEQYRYVVDKQFN” was “soluble”. With “MANSPKKPSDGTGVSASDTPKYQHTVPETKPAFNLSPGKASELSHSLPSPSQIKSTAHVSSTHNDAAGNTDDSVLPKNVSPTTNLRVESNGDTNNMFSSPAGLALPKKDDKKKNKGTSKADSKDGKASNSSGQNAQQQSDPNKMQDVLFSAGIDVREEEALLNSSINASKSQVQTNNVKIPNHLPFLHPEQVSNYMRKVGKEQNFNLTPTKNPEILDMMSSACENYMRDILTNAIVISRHRRKAVKINSGRRSEVSAALRAIALIQKKEEERRVKKRIALGLEKEDYENKIDSEETLHRASNVTAGLRAGSKKQYGWLTSSVNKPTSLGAKSSGKVASDITARGESGLKFREAREEPGIVMRDLLFALENRRNSVQTIISKGYAKIRD”, the “soluble on expression in E. coli” value was “not soluble”.

“MAPGQLALFSVSDKTGLVEFARNLTALGLNLVASGGTAKALRDAGLAVRDVSELTGFPEMLGGRVKTLHPAVHAGILARNIPEDNADMARLDFNLIRVVACNLYPFVKTVASPGVTVEEAVEQIDIGGVTLLRAAAKNHARVTVVCEPEDYVVVSTEMQSSESKDTSLETRRQLALKAFTHTAQYDEAISDYFRKQYSKGVSQMPLRYGMNPHQTPAQLYTLQPKLPITVLNGAPGFINLCDALNAWQLVKELKEALGIPAAASFKHVSPAGAAVGIPLSEDEAKVCMVYDLYKTLTPISAAYARARGADRMSSFGDFVALSDVCDVPTAKIISREVSDGIIAPGYEEEALTILSKKKNGNYCVLQMDQSYKPDENEVRTLFGLHLSQKRNNGVVDKSLFSNVVTKNKDLPESALRDLIVATIAVKYTQSNSVCYAKNGQVIGIGAGQQSRIHCTRLAGDKANYWWLRHHPQVLSMKFKTGVKRAEISNAIDQYVTGTIGEDEDLIKWKALFEEVPELLTEAEKKEWVEKLTEVSISSDAFFPFRDNVDRAKRSGVAYIAAPSGSAADKVVIEACDELGIILAHTNLRLFHH”: the “soluble on expression in E. coli” value is on record as “soluble”.

With “MAPKDITFVERCYKYIDMNKNNWSPYTVTSTKSWVKNYIEPFFKNLKLTEVNPSSVQAFVNYNFNNSTFTSAKVRYSFLSSVIREAYRLREIQENSCDFIKLPLEHHHHHH”, the “soluble on expression in E. coli” value was “soluble”. Then “MAPTQAGHDTAYLKETVGEALARGCAAAISAQPNDPVEYLGLWLLKYVKNAEVEGNFYRERQQDLQKKKDRLVKEAQSEQAAKSVALTRKEAADALALVTAEPRELLEAAVKLVKQHTAAGAAYAAVVAEPEEPDWVAPEDDEAAAVETEDEAAGGAALAEGEEPPPEPEPEPEAAPEDGEGDAPAPKIPRPVDYSKKYFAYVAASAGQEHVLEADLYRPAPPPEDADEDFKPEPLPYSFRVLDEKLPMLYVPNVAAEERVKFFRKFPKIGSYQACGVALPASGEFKALLAADTLFPEGSGQPLSADDRDFVWEVSQSLSRALEAVQARAAEALAATSAAEAVEELKAKVAELREQAAAEAAAAAPPPPAEGEEGEGEAPPAEEEPPAEEEAEEEEEEAEEGAEEGAEEGEEGEEAPPKPKKKKKVFNPIPGLQAAIEKLTAAAEAATEADARAQAAVALEKQALDEVVALASSHSDATLSSLRNMLSVPQGTYHVVKALLHLLGRPAASFSTWKRAHSHFSPRLFEDMAAYDATAERDMAVWGRVRSCYKAAPAAKKLDAEMPNTLFGSVALMYIKQVRRVARKAVLQRELAAKLAKAQQDLADKQAALVEAERVKAEREAEEARLAAEAEAAAAAEAEAAARAAAEAEAAAAAEAAAEAAAEAAAAAAEAAAEAGEGEAVAEREAAPAEAEAAPAEGEAAPPAEGEGEAQPAQEGSNSSSSSSDSSSSEESKAAAE”, with “not soluble”; and “MAPVIRRAKEIDLYCLNSLMYKLHDEHHQQCPDLFKTASEIEEEKSIARYLDDPECMVYVAEMDDVIIGFITGHFCELISTVSKLVMMATIDELYIEKEYRREGVAEQLMMRIEQELKDYGVKEIFVEVWDFNKGALEFYNKQGLNEHIHYLRKPLNRLEHHHHHH”, with “soluble”; and “MAQHVKFHQYFFQWMQLYKLDAVRPVTYRKYEMSHRQLVTLAPDLKMADLSRLTYQQLLNDYAETHERQTTMDFHRHLKGSLIDALEEGFIDRDPTRKAIIKGIKHRQHKLEHHHHHH”, with “soluble”. Then “MAQHVKFHQYFFQWMQLYKLDAVRPVTYRKYEMSHRQLVTLAPDLKMADLSRLTYQQLLNDYAETHERQTTMDFHRHLKGSLIDALEEGFIDRDPTRKAIIKGIKLEHHHHHH”, with “not soluble”; and “MAQLYFYYSAMNAGKSTALLQSSYNYQERGMRTVVYTAEIDDRFGAGKVSSRIGLSSPAKLFNQNTSLFEEIRAESARQTIHCVLVDESQFLTRQQVYQLSEVVDKLDIPVLCYGLRTDFRGELFVGSQYLLAWSDKLVELKTICFCGRKASMVLRLDQDGRPYNEGEQVVIGGNERYVSVCRKHYKDALEEGSLTAIQERHRHILEHHHHHH”, with “soluble”. In the case of “MAQQQNPYYGTGFYQPSGTYVQPQQMTQQQQQAMQQQTAQAAQAQYAISQGMLPLEQSYIENILRLNKGKQATVVMTYERGSSLGTQSYTGIIEAAGRDHIVISEPQSGKRYLLLMIYLDYVEFPEEITYLPSQQATYTPRP”, the “soluble on expression in E. coli” value was “soluble”. Then “MAQTAFHVEFNKAPEDQATKTHNRWHPDIPMVEWFNPGDEFRVECYDWTGGQISNDDSANDVRDVDLTRVHYLSGPFGVKGAEPGDLLVVDLLDVGALPESAWGFTGIFARENGGGFLCEHFPDARKACWDFHGIYTTSRHVPNVRWPGIIHPGLIGCLPDRALLERANKREAALLATDPNRVPPLLAPSYADTALMGQMSGEAARKAGAEAWRTVPPREHGGNCDIKNLSRGSRVYFPVYVKGGGLSMGDIHWSQGDGEITFCGAIEMAGFLDIRVDLIKDGINKYGIVNPIFKPSPIEPHFAEYLVFEGISVDEHTGEQYYLDAHVAYRRACLNAIEYLKKFGYTSEQAYIILGTAPVEGRISGIVDIPNACCTLAIPTEIFDFDIRPNAAGPSAKVGKAKVAVTSLEHHHHHH”, with “not soluble”.

Regarding “MAQTPAFNKPKVELHVHLDGAIKPETILYFGKKRGIALPADTVEELRNIIGMDKPLSLPGFLAKFDYYMPVIAGCREAIKRIAYEFVEMKAKEGVVYVEVRYSPHLLANSKVDPMPWNQTEGDVTPDDVVDLVNQGLQEGEQAFGIKVRSILCCMRHQPSWSLEVLELCKKYNQKTVVAMDLAGDETIEGSSLFPGHVEAYEGAVKNGIHRTVHAGEVGSPEVVREAVDILKTERVGHGYHTIEDEALYNRLLKENMHFEVCPWSSYLTGAWDPKTTHAVVRFKNDKANYSLNTDDPLIFKSTLDTDYQMTKKDMGFTEEEFKRLNINAAKSSFLPEEEKKELLERLYREYQ”, the “soluble on expression in E. coli” value is “soluble”. The value for “MARALADLSVNLQVPRVVPSPDSDSDTDLEDPSPRRSAGGLHRSQVIHSGHFMVSSPHSDSLTRRRDQEGPVGLADFGPRSIDPTLTHLFECLSLAYSGKLVSPKWKNFKGLKLLCRDKIRLNNAIWRAWYIQYVQRRKSPVCGFVTPLQGSEADEHRKPEAVILEGNYWKRRIEVVMREYHKWRIYYKKRVSGTDTCRPWVLRVLEGIARPHPNPYL” was “soluble”; that for “MARIIRRPLNLTAAVRFRLSPLSPFSGNSGSINSETTSWSELIRVPSLVEGCDYKHWLVLMKPPNGYPTRNHIVQSFVETLAMALGSEEEAKRSIYSVSTKYYYAFGCRIHEPLTYKIRSLPDVKWVLPDSFIVDGDNRYGGEPFVDGEVVPYDEKYHADWLRDQTDEDAKSGVVKKKHRRKRKKKLI” was “soluble”. The value for “MARIRVQFICQNCGTVHSRWAGKCNSCGEWNSLIEENANSGIGTGPKQNVHKGRVVALTSLSGNIEDAPRIHSGIAELDRVTGGGFVRGSVLLVGGDPGIGKSTLLTQTAAALSRKGHHVIYVSGEEAVAQICLRAQRLDAANTKVKLAAETNVEDILATLSEHKNLDMVIIDSIQTLWSDAADSAPGTVTQVRISAQAMIRFAKKTGAAVVLVGHVTKEGQIAGPRVVEHMVDAVLYFEGEGGHHYRILRTVKNRFGPTDEIGVFEMSDKGLREVINPSELFLGERNEKAPGAAVFAGMEGTRPILVEIQALVAPSSLGTPRRAVVGWDGNRLSMILAVLEAHCGVRFGQHDVYLNVAGGYRISEPAADLAVAAALVSSLTNIPLPTEYVYFGEISLSGAIRAVSHSAQRINEAQKLGFQGSVQPTTTTKMIKLPTFQQKTFSELSELIAALATGK” was “not soluble”.

In the case of “MASATTSSKNGKPLVVVYGDYKCPYCKELDEKVMPKLRKNYIDNHKVEYQFVNLAFLGKDSIVGSRASHAVLMYAPKSFLDFQKQLFAAQQDENKEWLTKELLDKHIKQLHLDKETENKIIKDYKTKDSKSWKAAEKDKKIAKDNHIKTVPTAFINGEKVEDPYDYESYEKLLKDKIKLEHHHHHH”, the “soluble on expression in E. coli” value was “soluble”.

Regarding “MASDEGKLFVGGLSFDTNEQSLEQVFSKYGQISEVVVVKDRETQRSRGFGFVTFENIDDAKDAMMAMNGKSVDGRQIRVDQAGKSSDNR”, the “soluble on expression in E. coli” value is reported as “soluble”. Turning to “MASDESMVPYYQWNFAPVVRGIARTQARVEVLRDGYTVSNELVPSGPFELANLPLGGGSGELKVIIHESDGTKQVFTVPYDTPAVALRKG”, the “soluble on expression in E. coli” value is reported as “soluble”.
